The nanobody polyreactivity screen of Harvey et al. (2022)

experiment: yeast display, Sf9 membrane polyspecificity reagent, FACS + sequencing; frameworks hold sequencing errors
In short: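 Galactose-induced (36–48 hours) yeast carrying a synthetic nanobody display library were exposed to 10% biotinylated, detergent-solubilized Sf9 membrane reagent at 4 °C for 1 hour. FACS followed streptavidin microbead enrichment, using low and high (top ~1%) gates for expression (anti-HA) and reagent binding (streptavidin). Colony PCR, MiSeq 2 × 250 sequencing and CDR-length filtering followed. Labels for polyreactivity reflect the gate of origin.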

Row | Sequence | polyreactivity (PSR sort gate)
1 | QVQLVESGGGLVQAGGSLRLSCAASGITLYRNVMGWYRQAPGKERELVADISGRGTSTYYADSVKGRFTISRDNAKNTVYLQIHSLKPEDNAVYYCKGEVYLVVYPGLYYYDIYDYWGQGTQVTVSS | low polyreactivity
2 | QVQLVESGGGLVQAGGSLRLSCAASGFIFWQYTMGWYRPAPGKERELVAAINGGSATYYADSVKGRFTISRDNAKNTVYLQMNSLKPEDTAVYYCAADRYLYHYRYEYYYWGQGTQVTVSS | high polyreactivity
3 | QVQLVESGGGLVQAGGSLRLSCAASGFTFTAYAMGLYRKATGKERELVAGISRRGASTYYADSVKGRFTISRDYAKNTVYLQMNSLKPEDTAVYYCAALGKYIVAWSGDYWGQGTQVTVSS | low polyreactivity
4 | QVQLVESGGGLVQAGGSLRLSCAASGSIFDQYTMGWSRQAPGKERELVAAIRFSGGSTSYADSVKGRFTISRDNAKNTVYLQMNSLIPEDTAVYYCNVDAITWWDWEDFDYWGQGTQVTVSS | low polyreactivity
5 | QVQLVESGGGLVQAGGSLRLSCAASGSIILLYAMGWYRQAPGKERELVAAISRSGDSTHYADSVKGRFTISRDNAKNTVYLQMNSLKPEDTAVYYCAADGYHPYGGLYDYCGQGTQVTVSS | low polyreactivity
6 | QFQLVESGGGLVQAGGSLRLSCAASGRIFKPNAMGWYRQAPGKERELVAAIRYSTGRTYYADSVKGRFTISRDNAKNTVYLQMNSLKPEDTAVYYCAARRVEYYGSQNGYWGQGTQVTVSS | high polyreactivity
7 | QVQLVESGGGLVQAGGSLRLSCAASGSTFVSYAMGWYRQAPGKERELVAGISWSGTRTYYADSVKGRFTISRDNAKNTVYLQMNSLKPEDTAVYYFNAVYKYNYRTLDYWGQGTQVTVSS | high polyreactivity
8 | QVQLVESGGGLVQAGGSLRLSCAASGSIFGIYAMGWYRQAPGKERELVAAISRSGGRTYYADSVKGRFTISRDNAKNTVYLQMNSLKPEDTAVYYCAARPPGGYLYDYWGQGTQVTVSS | high polyreactivity
9 | QVQLVESGGGLVQAGGSLRLSCAASGRIFYIIAMVWYRQAPGKEWELVASITGSGGRTYYADSVKGRFTISRDNAKNTVYLQMNSLKPEDTAVYYCNADLYVGYLYYLYDYWGQGTQVTVSS | low polyreactivity
10 | QVQLQESGGVQAGGSLRLSCAASGYISRSDVMGWYRQAPGKERELVATINNGTITYYADSVKGRFTISRDNATNTVYLQMNSLKPEDTAVHYCAVVQSDTDSLYYWGQGTQVTVSS | low polyreactivity
11 | QVQLVESGGGLVQAGGSLRLSCAASGGIPLYYVMGWYRQAPGKERELVADISGDDSTNYADSVKGRFTISRDNAKNTVYLQMNSLKPEDTAVYYCAADGWLWSFTGDGWWFDYWGQGTQVTVSS | low polyreactivity
12 | QFQLVESGGGLVQAGGSLRLSCAASGLTFSRYAMGWYIQAPGKERELVAAITCSGSSTYYSHSVKGRFTISRDNAKNNVYLQMNSLKPEDTAVYYCAARYGYSRGTYYRSDYWGQGTQVTVSS | high polyreactivity
13 | QVQLVESGGGLVQAGGSLRLICAASGRIFGIYAMGWYRQAPGKERELVARITGGGSTNYADSVKGRFTISRDNPKNTVYLQMNSLNPEDTAVYYCAANVRRIVGNITRYDYWGQGTQVTVSS | low polyreactivity
14 | IIQEGGSLRLSCAASGRTFSGYAMGWYRQAPGKERELIADITSGGSTYYADSVKGRFTISRDNAKNTVYLQMNSLKPEDTAVYYCAAERQIRSFWSSRTYEFGYWGQGTQVTVSS | low polyreactivity
15 | QVQLVESGGGLVQAGGSLRLSCAASGIIFVGYAMGWYRQAPGKERELVAGINCGGSTNYADSVKGRFTISRDNAKNTVYFQMNSLKPEDTAVYYCAAYPFDYYGYDYWGLGTQVTVSS | low polyreactivity
16 | QVQLVESGGGLVQAGGSLRLSCAASGSTFAYNDMGWYRQAPGKERELVADIRSGGNTNYADSVKGRFTISRDNAKNTVYLHMNSLKPEATAVYYCATDGYRIDVYHPDYRYDYWGQGTQVTVSS | low polyreactivity
